Biological target: T1, NAD+-dependent deacetylase Sirtuin 3 (SIRT3), protein used for SPR
T1 chain: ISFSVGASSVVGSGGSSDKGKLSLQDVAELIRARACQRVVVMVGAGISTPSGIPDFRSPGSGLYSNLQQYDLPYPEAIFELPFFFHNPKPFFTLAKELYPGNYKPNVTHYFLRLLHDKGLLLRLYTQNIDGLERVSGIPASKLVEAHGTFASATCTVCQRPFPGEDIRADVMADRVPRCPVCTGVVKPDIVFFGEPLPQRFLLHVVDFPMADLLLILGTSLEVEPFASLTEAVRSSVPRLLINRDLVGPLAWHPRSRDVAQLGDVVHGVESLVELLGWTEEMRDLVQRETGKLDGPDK
Assay: SPR; multicycle kinetics; which protein was immobilised is not told
Settings: both partners purified

B1: ATPase family AAA-domain containing protein 3A (ATAD3A), protein used for SPR (natural protein)
chain: SWLFGINKGPKGEGAGPPPPLPPAQPGAEGGGDRGLGDRPAPKDKWSNFDPTGLERAAKAARELEHSRYAKDALNLAQMQEQTLQLEQQSKLKEYEAAVEQLKSEQIRAQAEERRKTLSEETRQHQARAQYQDKLARQRYEDQLKQQQLLNEENLRKQEESVQKQEAMRRATVEREMELRHKNEMLRVEAEARARAKAERENADIIREQIRLKAAEHRQTVLESIRTAGTLFGEGFRAFVTDWDKVTATVAGLTLLAVGVYSAKNATLVAGRFIEARLGKPSLVRETSRITVLEALRHPIQVSRRLLSRPQDALEGVVLSPSLEARVRDIAIATRNTKKNRSLYRNILMYGPPGTGKTLFAKKLALHSGMDYAIMTGGDVAPMGREGVTAMHKLFDWANTSRRGLLLFVDEADAFLRKRATEKISEDLRATLNAFLYRTGQHSNKFMLVLASNQPEQFDWAINDRINEMVHFDLPGQEERERLVRMYFDKYVLKPATEGKQRLKLAQFDYGRKCSEVARLTEGMSGREIAQLAVSWQATAYASEDGVLTEAMMDTRVQDAVQQHQQKMCWLKAEGPGRGDEPSPS
Kd: 50.9 nM

Source: publication PMC10797690, “The SIRT3-ATAD3A axis regulates MAM dynamics and mitochondrial calcium homeostasis in cardiac hypertrophy” (International Journal of Biological Sciences, 2024)
